Substitutions are numbered along the chain they refer to. Names and notes keep the numbering of the source.

The values below come from patent publication US20130315910A1 (Xencor, published 2013).

The labels stand for the following.
T1: human FcγRIIb receptor protein (R&D Systems) (human, UniProt P31994 46-217)
T1 construct: Bought protein injected over captured antibody in Biacore; also called CD32b
T1 sequence (looked up): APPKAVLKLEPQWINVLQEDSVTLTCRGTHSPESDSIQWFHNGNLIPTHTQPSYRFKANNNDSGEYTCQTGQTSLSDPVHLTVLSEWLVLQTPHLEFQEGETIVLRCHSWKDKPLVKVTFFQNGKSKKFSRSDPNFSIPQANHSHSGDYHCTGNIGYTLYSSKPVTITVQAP

T2: human FcγRIIa (131R), His- and GST-tagged (human, UniProt P12318 34-217)
T2 construct: Expressed in HEK293T cells, purified by nickel chromatography; also called R131 FcγRIIa; not shown: 6xHis and GST tags of the pTT5 vector
T2 sequence (looked up): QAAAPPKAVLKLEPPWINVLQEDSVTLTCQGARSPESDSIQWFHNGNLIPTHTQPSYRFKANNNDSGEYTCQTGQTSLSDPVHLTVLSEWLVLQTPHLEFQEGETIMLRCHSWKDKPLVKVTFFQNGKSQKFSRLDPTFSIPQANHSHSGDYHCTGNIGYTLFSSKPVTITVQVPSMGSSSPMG

T3: human FcγRIIa (131H), His- and GST-tagged (human, UniProt P12318 34-217)
T3 construct: also called H131 FcγRIIa; HIIa; not shown: 6xHis and GST tags of the pTT5 vector
T3 sequence (looked up): T2 sequence (looked up) with R134H

B1: G236D/S267E/L328F (antibody, human IgG1, kappa)
heavy: EVQLVESGGGLVKPGGSLKLSCAASGYTFTSYVMHWVRQAPGKGLEWIGYINPYNDGTKYNEKFQGRVTISSDKSISTAYMELSSLRSEDTAMYYCARGTYYYGTRVFDYWGQGTLVTVSSASTKGPSVFPLAPSSKSTSGGTAALGCLVKDYFPEPVTVSWNSGALTSGVHTFPAVLQSSGLYSLSSVVTVPSSSLGTQTYICNVNHKPSNTKVDKKVEPKSCDKTHTCPPCPAPELLDGPSVFLFPPKPKDTLMISRTPEVTCVVVDVEHEDPEVKFNWYVDGVEVHNAKTKPREEQYNSTYRVVSVLTVLHQDWLNGKEYKCKVSNKAFPAPIEKTISKAKGQPREPQVYTLPPSREEMTKNQVSLTCLVKGFYPSDIAVEWESNGQPENNYKTTPPVLDSDGSFFLYSKLTVDKSRWQQGNVFSCSVMHEALHNHYTQKSLSLSPGK
light: DIVMTQSPATLSLSPGERATLSCRSSKSLQNVNGNTYLYWFQQKPGQSPQLLIYRMSNLNSGVPDRFSGSGSGTEFTLTISSLEPEDFAVYYCMQHLEYPITFGAGTKLEIKRTVAAPSVFIFPPSDEQLKSGTASVVCLLNNFYPREAKVQWKVDNALQSGNSQESVTEQDSKDSTYSLSSTLTLSKADYEKHKVYACEVTHQGLSSPVTKSFNRGEC
notes: HuAM4G7 anti-CD19 IgG1 (m1) with these Fc substitutions, EU index; copies: 2 + 2
B2: L235I (antibody, human IgG1, kappa)
heavy: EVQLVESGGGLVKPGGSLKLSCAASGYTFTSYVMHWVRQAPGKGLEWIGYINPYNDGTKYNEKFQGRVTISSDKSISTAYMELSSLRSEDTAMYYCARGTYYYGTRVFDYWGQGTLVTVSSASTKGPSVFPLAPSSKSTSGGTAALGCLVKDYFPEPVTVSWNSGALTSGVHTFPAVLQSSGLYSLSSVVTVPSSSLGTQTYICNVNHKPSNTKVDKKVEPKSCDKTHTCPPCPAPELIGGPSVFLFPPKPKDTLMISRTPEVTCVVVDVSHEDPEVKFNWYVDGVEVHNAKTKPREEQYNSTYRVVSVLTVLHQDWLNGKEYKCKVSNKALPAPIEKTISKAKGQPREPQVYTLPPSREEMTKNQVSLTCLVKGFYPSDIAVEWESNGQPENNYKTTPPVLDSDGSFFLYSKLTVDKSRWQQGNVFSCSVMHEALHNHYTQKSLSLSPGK
light: B1 light
notes: HuAM4G7 anti-CD19 IgG1 (m1) with this Fc substitution, EU index; copies: 2 + 2
B3: L234F/S267E (antibody, human IgG1, kappa)
heavy: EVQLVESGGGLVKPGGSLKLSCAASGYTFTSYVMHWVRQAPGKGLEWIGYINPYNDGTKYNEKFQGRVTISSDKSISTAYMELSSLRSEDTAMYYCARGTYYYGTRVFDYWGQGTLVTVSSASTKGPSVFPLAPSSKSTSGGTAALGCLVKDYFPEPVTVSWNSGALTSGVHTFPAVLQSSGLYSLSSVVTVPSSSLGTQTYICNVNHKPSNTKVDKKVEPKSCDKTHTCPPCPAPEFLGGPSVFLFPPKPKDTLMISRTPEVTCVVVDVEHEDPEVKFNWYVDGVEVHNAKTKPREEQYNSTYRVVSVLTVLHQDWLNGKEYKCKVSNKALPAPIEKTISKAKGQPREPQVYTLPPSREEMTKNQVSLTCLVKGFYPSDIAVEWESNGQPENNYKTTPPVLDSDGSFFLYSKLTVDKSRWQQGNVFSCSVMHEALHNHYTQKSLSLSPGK
light: B1 light
notes: as for B1
B4: L235D/S267E/L328F (antibody, human IgG1, kappa)
heavy: B1 heavy with L239D, D240G
light: B1 light
notes: as for B1
B5: L234E/S267E/L328F (antibody, human IgG1, kappa)
heavy: B1 heavy with L238E, D240G
light: B1 light
notes: as for B1
B6: L235Y/S239D/S267E (antibody, human IgG1, kappa)
heavy: B1 heavy with L239Y, D240G, S243D, F332L
light: B1 light
notes: as for B1
B7: G237D/S267E (antibody, human IgG1, kappa)
heavy: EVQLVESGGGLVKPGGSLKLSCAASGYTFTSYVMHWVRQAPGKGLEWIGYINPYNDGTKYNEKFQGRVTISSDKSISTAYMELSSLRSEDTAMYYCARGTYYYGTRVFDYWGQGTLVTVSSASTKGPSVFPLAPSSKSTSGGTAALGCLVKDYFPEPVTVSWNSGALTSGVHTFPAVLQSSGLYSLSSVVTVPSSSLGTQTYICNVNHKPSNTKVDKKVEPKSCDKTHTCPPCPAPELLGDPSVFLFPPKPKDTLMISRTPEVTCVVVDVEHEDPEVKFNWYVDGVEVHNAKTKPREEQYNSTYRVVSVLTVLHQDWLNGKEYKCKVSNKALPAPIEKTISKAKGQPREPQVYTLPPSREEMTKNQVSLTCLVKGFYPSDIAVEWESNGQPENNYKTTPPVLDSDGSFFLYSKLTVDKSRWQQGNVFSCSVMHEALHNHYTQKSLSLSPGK
light: B1 light
notes: as for B1
B8: L234E/S267E (antibody, human IgG1, kappa)
heavy: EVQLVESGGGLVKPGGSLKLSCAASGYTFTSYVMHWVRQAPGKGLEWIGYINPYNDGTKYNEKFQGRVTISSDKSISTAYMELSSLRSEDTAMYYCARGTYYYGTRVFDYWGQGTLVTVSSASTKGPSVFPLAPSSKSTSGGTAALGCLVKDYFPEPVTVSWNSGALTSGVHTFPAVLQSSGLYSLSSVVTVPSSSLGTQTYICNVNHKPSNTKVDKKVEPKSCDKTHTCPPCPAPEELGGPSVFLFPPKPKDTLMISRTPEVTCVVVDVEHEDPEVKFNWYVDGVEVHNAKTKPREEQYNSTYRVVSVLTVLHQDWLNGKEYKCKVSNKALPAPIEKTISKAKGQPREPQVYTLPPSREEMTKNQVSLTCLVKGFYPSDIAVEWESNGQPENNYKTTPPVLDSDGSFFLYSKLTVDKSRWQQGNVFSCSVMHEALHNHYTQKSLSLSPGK
light: B1 light
notes: as for B1
B9: L235D/S267E (antibody, human IgG1, kappa)
heavy: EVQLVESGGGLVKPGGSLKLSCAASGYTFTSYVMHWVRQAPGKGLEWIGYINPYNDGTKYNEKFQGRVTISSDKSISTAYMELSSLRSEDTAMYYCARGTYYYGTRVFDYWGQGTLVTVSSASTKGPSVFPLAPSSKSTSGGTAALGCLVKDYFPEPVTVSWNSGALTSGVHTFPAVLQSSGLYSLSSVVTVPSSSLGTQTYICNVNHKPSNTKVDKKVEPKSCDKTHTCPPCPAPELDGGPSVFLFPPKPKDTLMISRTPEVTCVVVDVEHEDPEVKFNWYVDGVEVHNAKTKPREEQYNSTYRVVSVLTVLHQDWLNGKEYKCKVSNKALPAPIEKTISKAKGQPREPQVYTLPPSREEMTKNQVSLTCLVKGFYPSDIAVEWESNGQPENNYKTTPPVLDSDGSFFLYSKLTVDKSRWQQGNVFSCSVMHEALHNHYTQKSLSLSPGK
light: B1 light
notes: as for B1
B10: G236T (antibody, human IgG1, kappa)
heavy: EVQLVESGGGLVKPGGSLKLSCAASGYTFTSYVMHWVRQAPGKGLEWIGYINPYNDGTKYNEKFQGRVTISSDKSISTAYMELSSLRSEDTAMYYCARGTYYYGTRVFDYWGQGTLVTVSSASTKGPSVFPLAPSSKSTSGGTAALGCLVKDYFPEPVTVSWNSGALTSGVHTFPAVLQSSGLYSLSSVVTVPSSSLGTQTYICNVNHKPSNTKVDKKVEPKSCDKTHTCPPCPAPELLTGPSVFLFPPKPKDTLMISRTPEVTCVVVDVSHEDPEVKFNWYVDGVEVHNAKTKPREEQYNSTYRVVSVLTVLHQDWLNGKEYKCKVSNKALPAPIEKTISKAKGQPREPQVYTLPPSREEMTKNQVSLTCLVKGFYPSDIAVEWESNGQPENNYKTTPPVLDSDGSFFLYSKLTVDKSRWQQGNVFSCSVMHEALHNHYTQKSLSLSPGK
light: B1 light
notes: as for B2
B11: L235Y/G236D/S267E (antibody, human IgG1, kappa)
heavy: B1 heavy with L239Y, F332L
light: B1 light
notes: as for B1

The target of the first assay is T4, human FcγRI receptor protein (R&D Systems) (human, UniProt P12314 16-288).
T4 construct: also called soluble FcγRI; solFcγRI
T4 sequence (P12314 16-288 limits assumed): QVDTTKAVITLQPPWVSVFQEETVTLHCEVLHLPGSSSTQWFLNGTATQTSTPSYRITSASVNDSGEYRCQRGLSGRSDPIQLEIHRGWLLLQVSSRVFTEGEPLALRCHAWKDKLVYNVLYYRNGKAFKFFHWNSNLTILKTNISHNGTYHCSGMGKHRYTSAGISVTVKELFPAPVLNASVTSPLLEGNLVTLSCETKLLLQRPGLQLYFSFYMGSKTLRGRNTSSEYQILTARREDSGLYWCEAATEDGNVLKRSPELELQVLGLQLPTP
Kind of assay: SPR. In general terms: Surface plasmon resonance follows binding to a sensor surface in real time, without labels.
Consider B1, for which the “Fold vs WT IgG1” value was 0.0736 fold and the Kd (usually the constant that tells how readily two partners part at equilibrium) came out at 4.48 nM.

Regarding B2, the “Fold vs WT IgG1” value worked out at 0.0197 fold and the Kd was found to be 16.7 nM.

Turning to B3, the “Fold vs WT IgG1” value worked out at 0.661 fold and the Kd was found to be 0.498 nM.

As to B4, the “Fold vs WT IgG1” value is 0.00057 fold and the affinity, expressed as Kd, was 573 nM.

In the case of B5, the “Fold vs WT IgG1” value amounted to 0.0425 fold and the Kd came out at 7.75 nM.

Take B6: the “Fold vs WT IgG1” value turned out to be 1.07 fold and the Kd was 0.307 nM.

Take B7: the “Fold vs WT IgG1” value came to 0.0874 fold and the Kd was 3.77 nM.

Take B8: the “Fold vs WT IgG1” value came out at 0.131 fold and the Kd came out at 2.51 nM.

On to B9, for which the “Fold vs WT IgG1” value is 0.00039 fold and the Kd turned out to be 854 nM.

Consider B10, for which the “Fold vs WT IgG1” value came out at 0.0157 fold and binding was characterised by a dissociation constant (Kd) of 21 nM.

For B11, the binding result is listed as “no binding”.

A further assay deals with T5, human FcγRIIIa (158V), His- and GST-tagged (human, UniProt P08637 17-208).
T5 construct: also called V158 FcγRIIIa; VIIIa; not shown: 6xHis and GST tags of the pTT5 vector
T5 sequence (P08637 17-208 F176V): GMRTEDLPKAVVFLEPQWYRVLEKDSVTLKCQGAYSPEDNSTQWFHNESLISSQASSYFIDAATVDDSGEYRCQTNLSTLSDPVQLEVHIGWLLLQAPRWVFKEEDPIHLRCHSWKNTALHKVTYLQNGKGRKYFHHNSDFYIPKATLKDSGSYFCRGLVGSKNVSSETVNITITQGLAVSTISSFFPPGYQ
As to the kind of experiment: SPR.
Consider B1, for which the binding result is “no binding”.

In the case of B2, the “Fold vs WT IgG1” value was determined as 0.903 fold and the Kd is 212 nM.

Consider B3, for which the “Fold vs WT IgG1” value worked out at 0.0938 fold and binding was characterised by a dissociation constant (Kd) of 2040 nM.

Turning to B4, the binding result is listed as “no binding”.

Take B5: the binding result is “no binding”.

With B6, the “Fold vs WT IgG1” value is 2.6 fold and the Kd was 73.5 nM.

B7: the binding result is “no binding”.

On to B8, for which the binding result was “no binding”.

Consider B9, for which the binding result was “no binding”.

B10: the binding result is recorded as “no binding”.

With B11, the binding result is “no binding”.

The target in another assay is T1, human FcγRIIb receptor protein (R&D …). Kind of assay: SPR.
Consider B1, for which the “Fold vs WT IgG1” value stood at 149 fold and the Kd is 9.87 nM.

Consider B2, for which the “Fold vs WT IgG1” value stood at 0.908 fold and the Kd came to 1620 nM.

Turning to B3, the “Fold vs WT IgG1” value stood at 26.4 fold and binding was characterised by a dissociation constant (Kd) of 55.7 nM.

With B4, the “Fold vs WT IgG1” value is 80.4 fold and the Kd stood at 18.2 nM.

Consider B5, for which the “Fold vs WT IgG1” value worked out at 195 fold and the Kd stood at 7.53 nM.

For the molecule B6, the “Fold vs WT IgG1” value turned out to be 116 fold and the Kd was 12.6 nM.

In the case of B7, the “Fold vs WT IgG1” value is 17 fold and the Kd worked out at 86.1 nM.

With B8, the “Fold vs WT IgG1” value turned out to be 15.1 fold and the Kd was found to be 97 nM.

Turning to B9, the “Fold vs WT IgG1” value was found to be 16.7 fold and binding was characterised by a dissociation constant (Kd) of 88.1 nM.

Regarding B10, the “Fold vs WT IgG1” value was 0.00225 fold and the Kd is 652000 nM.

As for B11, the “Fold vs WT IgG1” value was 25 fold and the affinity, expressed as Kd, was 58.7 nM.

A further assay concerns the target T2, human FcγRIIa (131R), His- and …. As to the kind of experiment: SPR.
As to B1, the “Fold vs WT IgG1” value came out at 59.9 fold and binding was characterised by a dissociation constant (Kd) of 14.3 nM.

As for B2, the “Fold vs WT IgG1” value was found to be 0.666 fold and binding was put at a Kd of 1290 nM.

Turning to B3, the “Fold vs WT IgG1” value came to 20.7 fold and the Kd was 41.6 nM.

In the case of B4, the “Fold vs WT IgG1” value was 133 fold and binding was characterised by a dissociation constant (Kd) of 6.45 nM.

On to B5, for which the “Fold vs WT IgG1” value was found to be 174 fold and the affinity, expressed as Kd, was 4.93 nM.

Turning to B6, the “Fold vs WT IgG1” value was found to be 98.9 fold and the Kd was 8.68 nM.

With B7, the “Fold vs WT IgG1” value worked out at 13.6 fold and binding was put at a Kd of 63.1 nM.

For the molecule B8, the “Fold vs WT IgG1” value turned out to be 10.7 fold and the Kd was determined as 80.4 nM.

On to B9, for which the “Fold vs WT IgG1” value was determined as 13 fold and the Kd is 66.1 nM.

For B10, the “Fold vs WT IgG1” value was 0.35 fold and the affinity, expressed as Kd, was 2460 nM.

Consider B11, for which the “Fold vs WT IgG1” value came out at 9.67 fold and the Kd is 88.8 nM.

For the next assay, the target named is T3, human FcγRIIa (131H), His- and …. As to the kind of experiment: SPR.
For the molecule B1, the “Fold vs WT IgG1” value is 0.0301 fold and binding was put at a Kd of 21500 nM.

B2: the “Fold vs WT IgG1” value worked out at 0.181 fold and binding was put at a Kd of 3580 nM.

On to B3, for which the “Fold vs WT IgG1” value is 0.509 fold and binding was put at a Kd of 1270 nM.

For the molecule B4, the “Fold vs WT IgG1” value worked out at 0.275 fold and binding was characterised by a dissociation constant (Kd) of 2350 nM.

Turning to B5, the “Fold vs WT IgG1” value was found to be 0.0725 fold and binding was characterised by a dissociation constant (Kd) of 8920 nM.

For B6, the “Fold vs WT IgG1” value amounted to 1.05 fold and binding was characterised by a dissociation constant (Kd) of 617 nM.

For the molecule B7, the binding result is reported as “no binding”.

As for B8, the binding result is recorded as “no binding”.

Take B9: the binding result is recorded as “no binding”.

Regarding B10, the “Fold vs WT IgG1” value worked out at 0.486 fold and the Kd came out at 1330 nM.

Turning to B11, the binding result is given as “no binding”.
